Source: patent publication US7375083B2, “Pharmaceutical compositions for prevention of overdose or abuse” (Shire LLC, priority 2003, dated 2008)
Where a SMILES comes first, the peptide text is derived from it. The star is where a group is joined. X1 = COc1ccc2c3c1O[C@H]1C(O*)=CC[C@H]4[C@@H](C2)N(C)CC[C@]314

Test: Oral bioavailability of hydrocodone conjugates in rats, LC/MS/MS
Details: for hydrocodone plus hydromorphone concentration / AUC (ng/ml h) 0-8 h / Cmax / Percent HC (AUC) / Percent HC (Cmax) / Hydrocodone AUC / Hydrocodone Cmax / Hydrocodone plus hydromorphone AUC, Percent HC relative to hydrocodone bitartrate / Hydrocodone plus hydromorphone Cmax / Hydrocodone plus hydromorphone Cmax, Percent HC relative to hydrocodone bitartrate / Hydromorphone AUC, Percent HM relative to hydrocodone bitartrate / Hydromorphone Cmax / Hydromorphone Cmax, Percent HM relative to hydrocodone bitartrate / Mean hydrocodone plus hydromorphone concentration / Mean hydromorphone concentration / Mean hydrocodone concentration / Percent HC + HM (AUC) / Percent HC + HM (Cmax): oral; for AUC (ng/ml h) 0-8 h / Cmax: hydrocodone plus hydromorphone; for Percent HC (AUC) / Percent HC (Cmax): relative to hydrocodone bitartrate; for Percent HC + HM (AUC) / Percent HC + HM (Cmax): relative to parameter following hydrocodone bitartrate
[1] = 1 mg/kg hydrocodone base content
[2] = 1 mg/kg hydrocodone base content, 0 h
[3] = 1 mg/kg hydrocodone base content, 0.1 h
[4] = 1 mg/kg hydrocodone base content, 1.0 h
[5] = 1 mg/kg hydrocodone base content, 2.0 h
[6] = 1 mg/kg hydrocodone base content, 4.0 h
[7] = 2 mg/kg hydrocodone base content
[8] = 2 mg/kg hydrocodone base content, 0 h
[9] = 2 mg/kg hydrocodone base content, 0.1 h
[10] = 2 mg/kg hydrocodone base content, 0.5 h
[11] = 2 mg/kg hydrocodone base content, 1.0 h
[12] = 2 mg/kg hydrocodone base content, 2.0 h
[13] = 2 mg/kg hydrocodone base content, 4.0 h
[14] = 5 mg/kg hydrocodone base content

Question: For CC[C@H](C)[C@H](NC(=O)[C@H](Cc1ccccc1)NC(=O)[C@H](Cc1ccccc1)NC(=O)[C@H](Cc1ccc(O)cc1)NC(=O)[C@@H](N)Cc1ccc(O)cc1)C(=O)OC1=CC[C@H]2[C@H]3Cc4ccc(OC)c5c4[C@@]2(CCN3C)[C@H]1O5 [YYFFI[SEQ ID NO: 8]-HC, Tyr-Tyr-Phe-Phe-Ile[SEQ ID NO: 8]-(6-O)-Hydrocodone] (H-YYFFI-X1), which “Percent Decrease 1 mg/kg vs. 5 mg/kg AUC” value (oral bioavailability) is on record?
Answer: 15%

Question: And the “Percent Decrease 1 mg/kg vs. 5 mg/kg Cmax” value (oral bioavailability)?
Answer: 23%

Question: And the “hydrocodone plus hydromorphone concentration” value (1 mg/kg dose, 0.5 Hours)?
Answer: 7 ng/mL

Question: What about the “hydrocodone plus hydromorphone concentration” value (1 mg/kg dose, 1.0 Hours) of the same molecule?
Answer: 3.7 ng/mL

Question: What about the “hydrocodone plus hydromorphone concentration” value (1 mg/kg dose, 1.5 Hours) of the same molecule?
Answer: 4.3 ng/mL

Question: What about the “hydrocodone plus hydromorphone concentration” value (1 mg/kg dose, 3 Hours) of the same molecule?
Answer: 1.4 ng/mL

Question: And the “hydrocodone plus hydromorphone concentration” value (1 mg/kg dose, 5 Hours)?
Answer: 1.1 ng/mL

Question: What about the “hydrocodone plus hydromorphone concentration” value (1 mg/kg dose, 8 Hours) of the same molecule?
Answer: 0 ng/mL

Question: What about the “AUC (ng/ml h) 0-8 h” value (1 mg/kg dose) of the same molecule?
Answer: 14.9 ng·h/mL

Question: And the Cmax (1 mg/kg dose)?
Answer: 7 ng/mL

Question: And the “Percent HC (AUC)” value (1 mg/kg dose)?
Answer: 110%

Question: And the “Percent HC (Cmax)” value (1 mg/kg dose)?
Answer: 81%

Question: And the “Hydrocodone AUC” value [1]?
Answer: 26.3

Question: And the “Hydrocodone Cmax” value [1]?
Answer: 20.3 ng/mL

Question: What about the “Hydrocodone plus hydromorphone AUC, Percent HC relative to hydrocodone bitartrate” value [1] of the same molecule?
Answer: 64%

Question: And the “Hydrocodone plus hydromorphone Cmax” value [1]?
Answer: 20.8 ng/mL

Question: What about the “Hydrocodone plus hydromorphone Cmax, Percent HC relative to hydrocodone bitartrate” value [1] of the same molecule?
Answer: 18%

Question: And the “Hydromorphone AUC, Percent HM relative to hydrocodone bitartrate” value [1]?
Answer: 97%

Question: What about the “Hydromorphone Cmax” value [1] of the same molecule?
Answer: 2.9 ng/mL

Question: What about the “Hydromorphone Cmax, Percent HM relative to hydrocodone bitartrate” value [1] of the same molecule?
Answer: 89%

Question: What about the “Mean hydrocodone plus hydromorphone concentration” value [2] of the same molecule?
Answer: 0 ng/mL

Question: And the Mean hydromorphone concentration [2]?
Answer: 0 ng/mL

Question: What about the Mean hydrocodone concentration (1 mg/kg hydrocodone base content, 0 Hours) of the same molecule?
Answer: 0 ng/mL

Question: What about the Mean hydrocodone concentration (1 mg/kg hydrocodone base content, 0.1 Hours) of the same molecule?
Answer: 20.3 ng/mL

Question: What about the Mean hydrocodone concentration (1 mg/kg hydrocodone base content, 0.5 Hours) of the same molecule?
Answer: 17.9 ng/mL

Question: And the Mean hydrocodone concentration (1 mg/kg hydrocodone base content, 1.0 Hours)?
Answer: 10.4 ng/mL

Question: What about the Mean hydrocodone concentration (1 mg/kg hydrocodone base content, 2.0 Hours) of the same molecule?
Answer: 2.8 ng/mL

Question: And the Mean hydrocodone concentration (1 mg/kg hydrocodone base content, 4.0 Hours)?
Answer: 1.2 ng/mL

Question: What about the “Mean hydrocodone plus hydromorphone concentration” value [3] of the same molecule?
Answer: 20.6 ng/mL

Question: And the Mean hydromorphone concentration [3]?
Answer: 0.27 ng/mL

Question: What about the Mean hydromorphone concentration (1 mg/kg hydrocodone base content, 0.5 h) of the same molecule?
Answer: 2.87 ng/mL

Question: And the “Mean hydrocodone plus hydromorphone concentration” value [4]?
Answer: 12.8 ng/mL

Question: What about the Mean hydromorphone concentration [4] of the same molecule?
Answer: 2.39 ng/mL

Question: What about the “Mean hydrocodone plus hydromorphone concentration” value [5] of the same molecule?
Answer: 5.0 ng/mL

Question: What about the Mean hydromorphone concentration [5] of the same molecule?
Answer: 2.24 ng/mL

Question: And the “Mean hydrocodone plus hydromorphone concentration” value [6]?
Answer: 2.2 ng/mL

Question: What about the Mean hydromorphone concentration [6] of the same molecule?
Answer: 1.02 ng/mL

Question: What about the “Percent HC + HM (AUC)” value (1 mg/kg) of the same molecule?
Answer: 58%

Question: What about the “Percent HC + HM (Cmax)” value (1 mg/kg) of the same molecule?
Answer: 18%

Question: What about the “Hydrocodone AUC” value [7] of the same molecule?
Answer: 48

Question: And the “Hydrocodone Cmax” value [7]?
Answer: 35.2 ng/mL

Question: And the “Hydrocodone plus hydromorphone AUC, Percent HC relative to hydrocodone bitartrate” value [7]?
Answer: 103%

Question: What about the “Hydrocodone plus hydromorphone Cmax” value [7] of the same molecule?
Answer: 36.3 ng/mL

Question: What about the “Hydrocodone plus hydromorphone Cmax, Percent HC relative to hydrocodone bitartrate” value [7] of the same molecule?
Answer: 53%

Question: What about the “Hydromorphone AUC, Percent HM relative to hydrocodone bitartrate” value [7] of the same molecule?
Answer: 61%

Question: And the “Hydromorphone Cmax” value [7]?
Answer: 8.7 ng/mL

Question: What about the “Hydromorphone Cmax, Percent HM relative to hydrocodone bitartrate” value [7] of the same molecule?
Answer: 48%

Question: And the “Mean hydrocodone plus hydromorphone concentration” value [8]?
Answer: 0 ng/mL

Question: What about the Mean hydromorphone concentration [8] of the same molecule?
Answer: 0 ng/mL

Question: What about the Mean hydrocodone concentration (2 mg/kg hydrocodone base content, 0 Hours) of the same molecule?
Answer: 0 ng/mL

Question: And the Mean hydrocodone concentration (2 mg/kg hydrocodone base content, 0.1 Hours)?
Answer: 35.2 ng/mL

Question: What about the Mean hydrocodone concentration (2 mg/kg hydrocodone base content, 0.5 Hours) of the same molecule?
Answer: 23 ng/mL

Question: And the Mean hydrocodone concentration (2 mg/kg hydrocodone base content, 1.0 Hours)?
Answer: 14.4 ng/mL

Question: And the Mean hydrocodone concentration (2 mg/kg hydrocodone base content, 2.0 Hours)?
Answer: 9.8 ng/mL

Question: And the Mean hydrocodone concentration (2 mg/kg hydrocodone base content, 4.0 Hours)?
Answer: 3.3 ng/mL

Question: And the “Mean hydrocodone plus hydromorphone concentration” value [9]?
Answer: 36.3 ng/mL

Question: And the Mean hydromorphone concentration [9]?
Answer: 1.13 ng/mL

Question: And the “Mean hydrocodone plus hydromorphone concentration” value [10]?
Answer: 31.7 ng/mL

Question: And the Mean hydromorphone concentration [10]?
Answer: 8.74 ng/mL

Question: What about the “Mean hydrocodone plus hydromorphone concentration” value [11] of the same molecule?
Answer: 18.0 ng/mL

Question: And the Mean hydromorphone concentration [11]?
Answer: 3.63 ng/mL

Question: What about the “Mean hydrocodone plus hydromorphone concentration” value [12] of the same molecule?
Answer: 13.2 ng/mL

Question: What about the Mean hydromorphone concentration [12] of the same molecule?
Answer: 3.41 ng/mL

Question: And the “Mean hydrocodone plus hydromorphone concentration” value [13]?
Answer: 4.2 ng/mL

Question: And the Mean hydromorphone concentration [13]?
Answer: 0.88 ng/mL

Question: What about the “Percent HC + HM (AUC)” value (2 mg/kg) of the same molecule?
Answer: 126%

Question: And the “Percent HC + HM (Cmax)” value (2 mg/kg)?
Answer: 58%

Question: What about the “hydrocodone plus hydromorphone concentration” value (5 mg/kg dose, 0.5 Hours) of the same molecule?
Answer: 46 ng/mL

Question: What about the “hydrocodone plus hydromorphone concentration” value (5 mg/kg dose, 1.0 Hours) of the same molecule?
Answer: 33 ng/mL

Question: What about the “hydrocodone plus hydromorphone concentration” value (5 mg/kg dose, 1.5 Hours) of the same molecule?
Answer: 34 ng/mL

Question: What about the “hydrocodone plus hydromorphone concentration” value (5 mg/kg dose, 3 Hours) of the same molecule?
Answer: 13 ng/mL

Question: And the “hydrocodone plus hydromorphone concentration” value (5 mg/kg dose, 5 Hours)?
Answer: 8.3 ng/mL

Question: And the “hydrocodone plus hydromorphone concentration” value (5 mg/kg dose, 8 Hours)?
Answer: 4.5 ng/mL

Question: What about the “AUC (ng/ml h) 0-8 h” value (5 mg/kg dose) of the same molecule?
Answer: 105 ng·h/mL

Question: And the Cmax (5 mg/kg dose)?
Answer: 46 ng/mL

Question: What about the “Percent HC (AUC)” value (5 mg/kg dose) of the same molecule?
Answer: 86%

Question: What about the “Percent HC (Cmax)” value (5 mg/kg dose) of the same molecule?
Answer: 63%

Question: What about the “Hydrocodone AUC” value [14] of the same molecule?
Answer: 47

Question: What about the “Hydrocodone Cmax” value [14] of the same molecule?
Answer: 26.6 ng/mL

Question: And the “Hydrocodone plus hydromorphone Cmax” value [14]?
Answer: 32.9 ng/mL

Question: What about the “Hydromorphone AUC, Percent HM relative to hydrocodone bitartrate” value [14] of the same molecule?
Answer: 51%

Question: And the “Hydromorphone Cmax” value [14]?
Answer: 10.4 ng/mL
